# The supplement of paper PMC12636428
# Test system: Saccharomyces cerevisiae
# Assay: transcriptional activation domain activity (GFP:mCherry ratio, weighted mean of sorted bins, harmonized to initial dataset scale) (arbitrary fluorescence ratio units); higher = stronger transcriptional activation
# Conditions: beta-estradiol 1 µM; induction time 4 h
# In short: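 Barcoded tiles were sequenced after cells were sorted into 8 bins by GFP:mCherry ratio. Before sorting, cultures had been diluted 1:5 into SC with 1 uM beta-estradiol and held for 4 hours at 30 °C. The tiles were fused to an estradiol-inducible synthetic transcription factor and integrated at URA3 in yeast diploids carrying a GFP reporter. Activation activity is the read-weighted mean of bin median fluorescence, averaged over barcodes and linearly mapped onto the initial dataset scale, and tiles under 50 reads were left out.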
sequence,measurement,value
FLCIFFLSLFFYTFSISYLYVWCLPPPPRRQTCLPTLTFISLPFVSALFLSFG,transcriptional activation domain activity,59100
GIMILCCTLVVLTRLMGHRILPYTYFTSCLLMQIDFILGMIWDMDPFKVRRFC,transcriptional activation domain activity,44600
QENTLPATQANSSLLETYPIVQSNPVTTTIKESPNSIMAGWDNWESDMVWRDV,transcriptional activation domain activity,90100
ERGTGGQGRRAEEEEAQGGDGGHKTKERGRDEEAGAGGGPAEAGAGAGAKGRT,transcriptional activation domain activity,28600
RMGRWKHGWRKWWWKFYKWCFLWMIEVIRVVKVVGIVIVGCIYLGLRFFIFVE,transcriptional activation domain activity,57000
NDTKKNMSTSNLFPFSFSNTDLTALFTHPEGPNCTNTNNGNVDVCNRASTDAT,transcriptional activation domain activity,51400
FGLLIAGWVCFFFFLSPLFPLFPLFPLFFFFFLLVGSPVSVYLWLGFLVWFGL,transcriptional activation domain activity,32800
MFGICTYSIPFLYFPPIPFVSYVSTLYFFVSHSISFHYLYIYCSIHLPFFLFI,transcriptional activation domain activity,69000
EPRSLPASDLNKITLAPPNEESRMPKSMLELTSYSSDLPPELVDIIPKTDLTV,transcriptional activation domain activity,58300
FLAAVTCLLCVIGIFICLLFHANPYLRLIPLLIMIQSICFVLFSHFGLCLYRL,transcriptional activation domain activity,39400
VFSQTEAIRVLGLIGRIATGRHLDIILSDILPPSTVAELYALGKFMNLPWWYR,transcriptional activation domain activity,58400
TVWLILNDQTLGYALGSFLCENSLLLSQRINEFFDTVLVAWMQWVLRWLDSWP,transcriptional activation domain activity,40400
GDDCEVFFLFTFTFTFFFFYFFPRVLFTPFFFYILDLSLFFYCCSCFFFFSPC,transcriptional activation domain activity,27100
SNVFPTQLLARHQKEIKRFKRMLAIVRWFEVCFALLRIKYLMKLFWFSVEFCN,transcriptional activation domain activity,50000
GKEVVDIQEAEVEEGGVKREKVRVVFKDGTDAVGDLVVGCDGARSRARECIVG,transcriptional activation domain activity,45700
KEEEDRKRAEEEEERERERRRQDEVDRRRRMQDEAKQREAEAKKQAARAAALA,transcriptional activation domain activity,35500
MELLSLLFFLFFFFFLYSLFGYASTLSFLPHHLFSFLTIYFISYFCDILFFEF,transcriptional activation domain activity,44900
GVENQVDFHHNEKHKLMLLKALGYRVLADINKVSVVMPAALVGTVVLTLRGRG,transcriptional activation domain activity,44500
ALCEDRSQTWHPGTQLDFPQELLDQLNYYLVNLRKYFNNESILFLVYLGCVIF,transcriptional activation domain activity,59600
AGAKQLAYPQKLALIQYSDHISLNILVGKGWQELNAELVCLFVILARNIFVML,transcriptional activation domain activity,45600
EVAANHRTILDHTMSLVSAVHIACLRFMTVAWAQAYRRYIVAWIRDLQVLHPH,transcriptional activation domain activity,70400
LYYMECSFFRLIIRWIPHWLFLSVKADHVILPLPNHPVGAIIGPNLFCIFLHI,transcriptional activation domain activity,50900
VFFLSLCFASFFPLGHLCWAKGLFHTLEFIAPISRSVSCYVMGLVLYTFHLPE,transcriptional activation domain activity,22000
VDRFKEFSHFLRRNENRTPSMIVLRRLCLDVSFLLCVVGFVRILWKRSGMRRR,transcriptional activation domain activity,62400
VCVANIFVVFSLYSYTWIQAVVISLSILVYYAFIAIYAQFNTFLFAGQIRLFG,transcriptional activation domain activity,70400
SPLPPPSPFFPLQPLSLFHLSPLFSPVSLHFPCFSPFPPPLPPFFLPLLPLLS,transcriptional activation domain activity,60500
AYTDEDDAHQIRRKQLSMVLRGMPSVFDSLTHARVYLELIFRQMEHYLYVAAT,transcriptional activation domain activity,42200
PTTTTTPSSPSTTCRSPTRRRAPRRRSACTGSRTRRGSPQSRRRCCRRTTSTT,transcriptional activation domain activity,28900
MFGKRFIYCLSIIDYGISPHEGITGFILCVCVVYFLECGFCYCWHSRRTSMSW,transcriptional activation domain activity,64400
VYSYKKRMWHYFLFDLCYYVNIINLVYIWILPQSAWLFVACYCLSHGSVASAV,transcriptional activation domain activity,58700
MISTLAMSLLETPIEPRTHAEICLEFWGIRLCSPITDINLAAFWNYYFKTIAH,transcriptional activation domain activity,45600
HLLYVYLVLIAVVISSYRCFLNVSTRSIVICLLTHAFWPPLTFIIVCSAFWIP,transcriptional activation domain activity,73100
PLLRVLQICSFKDLMFDVPHLHRFISNAELLRTLNHLDVSFSSYSVFLQLVGF,transcriptional activation domain activity,70500
MHITCPRLWGHCSWCVVLPFIFHTFLYCIPTFCCFLVHISAILFIGFSFLGSL,transcriptional activation domain activity,55600
MMMGTIVKSFFLFTFTFSIFFFYFFPRVLFTPFFFTYWTSAFFLLLFLFFFLF,transcriptional activation domain activity,64900
FFEVGGVPRFQETVIAGGDNSVGRALSSPTVIYSGKHDGIALTIIRLLRPIWL,transcriptional activation domain activity,53400
IKDIEINDLRNRYTLTKGAVQKKGPRLVRPLRISSSPECTEPRPSPCLSVSLS,transcriptional activation domain activity,45600
RLDATAEEEAKRQRACEACRALKVRCDRGSDDSPCKRCEKARRECVITQPSRK,transcriptional activation domain activity,40300
MDEDEDENENENENSKPPPPLPALPPHPHPHPHPHPHPHPQPQQPQSSSTTNE,transcriptional activation domain activity,40800
IRNHSLPTNLQVKDKIEDLNEIKFFNDFEKLEFFNKYAKVNTNNDVNENNDLW,transcriptional activation domain activity,46800
MFLLFSLCVDFKGVLGGWLLFFFLLAFDGFTRLLWGDVICFFFYLLLFATTHV,transcriptional activation domain activity,57600
MLRPYFFSPHFLLFVLVSAFNPGYYPPSLQFLSIICLYIFICPPPFFFISFPP,transcriptional activation domain activity,50800
LLLPLLLPVLHIFPFLIDFLLPVLDLLLALLVLLPALLDLLLVLLVLLPPLLP,transcriptional activation domain activity,56100
SSNGRKSSKRRSRDKDEDEDEDEEDRKRRKRRRERERSKEKEERRSVLTGKKI,transcriptional activation domain activity,27200
FVGIRDRTTFLLFTSAWTVVFSLLFVLLFMHSASTGSPLTSVASHFVVFLLTW,transcriptional activation domain activity,56900
QGRTLDVTRAVSRDRAEKLRETGERTRERKDKRNLYLMREGVIFVSTPSASTL,transcriptional activation domain activity,39700
YRLLLSLVVRLYFFLRFSLSHTLRTVVIVLAPLTYFLSGITYIFFTAPYRVLF,transcriptional activation domain activity,61800
SNGTSLFVTCWVALNVFFHFYRLPLRWDFFFVFADRAGLIFIVNLPLLYLLAA,transcriptional activation domain activity,59500
GEEDAEEEAKPKKGGKRKAEPVKEEDDEPEEAPAKPKRGRKSAKEQVKEEIKE,transcriptional activation domain activity,42700
MISFFCDIPVFSLLVPFLPLSFMFPMSPMFYYFFIYAVGCSIFLSLLFFSYVI,transcriptional activation domain activity,28100
GARRQARRPRKRESSAADGDDNDADRMDVDREEARGGREQADAGDAEDEDDEE,transcriptional activation domain activity,40000
RGGKGVEEERGEGGGRGEGERGQGGRGRGGRGAGARGRGGTGEEGEGAGGKQE,transcriptional activation domain activity,51400
MPPAPKSPQARRAGAPKAKGAVRAKSGCYTCRIRRKKCDEQMNPEGSCSTCVR,transcriptional activation domain activity,37400
ASGAGAVKKAPKSPKAVATAKVGAKAAKPKAGAKATKPKAAKPKAAKAAAAGA,transcriptional activation domain activity,20900
ICIPLPFQTLVCSHIVLTPLFYPLFCTPLDIFYVSNYSCLVLVLSLPFHFFLH,transcriptional activation domain activity,39400
